Data published in the RNAGym collection of RNA variant scans (doi:10.7554/elife.80360).

B1: Hairpin Ribozyme (parent)
chain: GUCCUCUUUCACGUGCGCGUGAAAGAGAGAAGUGAACCAGAGAAACACACGUUGUGGUAUAUUACCUGGUA

Variants of: B1
Assay: self-cleavage, relative activity (ratio to wild type); higher = more cleavage; co-transcriptional

Variant	self-cleavage
GUUCUCUUUCACGUGCGCGUGAAAGAGAGAAGUGAACCAGAGAAACACACGUUGUGGUACAUUACCUGGUA [C3U U60C]	0.705
GUCCUCUUUCACGUGCGCGUGAAAGAGAGAAGUGAACCAGAGAAACACACGUUGUGAUACAUUACCUGGUA [G57A U60C]	0.205
GUCCUCUUUCACGUGCGCGUGAAACAGAGAAGUGAACCAGAGAAACACACGUUGUGGUAUAUUAUCUGGUA [G25C C65U]	0.324
GUCCUCUUCCACGUGCGCGUGAAAGAGAGAAGUGAACCAGAGAAACACCCGUUGUGGUAUAUUACCUGGUA [U9C A49C]	0.204
GUCCUCUUUCACGUGUGCGUGAAAGAGAGAAGUGAACCAGAGAAACACACGUUGUGGUAUAUUACCUGUUA [C16U G69U]	0.267
GACCUCUUUCACGUGCGCGUGAAAGAGAGAAGUGAACCAGAGAAACACACGUUGUGAUAUAUUACCUGGUA [U2A G57A]	0.136
GUCCUCUAUCACGUGCGCGUGAAAGAGAGAAGUGAACCAGAGAAACACACGUUGUGGUAUAUAACCUGGUA [U8A U63A]	0.111
GUCCUCUUUCACGUGCGCUUGAAAGAGUGAAGUGAACCAGAGAAACACACGUUGUGGUAUAUUACCUGGUA [G19U A28U]	0.628
GUCCUCUUUCACGUGCGCGUGAAAGAGAGAAGUGAACCAGAGAUACACACGUUGUGGUAUAAUACCUGGUA [A44U U62A]	0.26
GUCCUCUUUCACGUGCGCGUGAAAGAGAGAAGUGAACCAGAGAAACACACGUUGUGGUAUAUUAGCCGGUA [C65G U67C]	0.183
GUCCGCUUUCACGUGCGCGUGAAAGAGAGAAGUGAACCAGAGAAACACACGUUGAGGUAUAUUACCUGGUA [U5G U55A]	0.139
GUCCUCUUUCACGUGGGCGUGAAAGAGAGAAGUGAACCAGAGAAACACACGUUGUGGUAUCUUACCUGGUA [C16G A61C]	0.2
GUCCUCUUUCACGUGCGCGUGAAAGAGAGAAGUGCACCAGAGGAACACACGUUGUGGUAUAUUACCUGGUA [A35C A43G]	0.155
GUCCUCUUUCACGUGCGCGUGAAAGAGAGAAGUGAACCAGAGAAACACACCUUGUGGUAUAUUACCUCGUA [G51C G68C]	0.322
GUCCUCUUUCACGUGCGCGUGAAAGAGAGAAGUGAAGCGGAGAAACACACGUUGUGGUAUAUUACCUGGUA [C37G A39G]	0.328
GUCCUCUUUCACGUGCGCGUGAAAGAGAAAAGCGAACCAGAGAAACACACGUUGUGGUAUAUUACCUGGUA [G29A U33C]	0.0835
GUCCUCUUUCACGUGCGCGUGAAAGAGAGAAGUGAACCAGAGAAACACACGUUGUCGUAUAUCACCUGGUA [G56C U63C]	0.17
GGCCUCUUUCACGUGCGCGUGAAAGAGAGAAGUGAACCACAGAAACACACGUUGUGGUAUAUUACCUGGUA [U2G G40C]	0.126
GUCCUCCUUCACGUGCGCGUGAAAGAGAGAACUGAACCAGAGAAACACACGUUGUGGUAUAUUACCUGGUA [U7C G32C]	0.141
GUCCUCUUUCACGUGCGCGUGAAAGAGAGAAGUGGACCAGAGAAACACACGUUGUGGUAUAUUACCUGUUA [A35G G69U]	0.285
GUCCUCUUUCACGUGCGCGAGAAAGAGAGAAGUGAACCAGAGAAACACACGUUGUGGUAUAUUACCUGGUC [U20A A71C]	1.15
GUCCUCUUACACGUGCGCGUGAAAGAGAGAAGUGAGCCAGAGAAACACACGUUGUGGUAUAUUACCUGGUA [U9A A36G]	0.797
GUCCUCUUUCACGUGCGCGUGAAAGAGAGAAGUGAACCAGAGCAACAUACGUUGUGGUAUAUUACCUGGUA [A43C C48U]	0.16
GUCCUCUUUCACGUGCGCGUGAAAGAGAGAAGUGACCCAGAGAAACACACGUUGUGGUAUAUUCCCUGGUA [A36C A64C]	0.11
GUCCUCUUUCACGUGCGCGUGAAAGAGAGAAGUGAACCAGAGAAACACUCGUUGUGGUAUACUACCUGGUA [A49U U62C]	0.196
GUCCUCUUUCACGUGCGCGUGAAACAGAGAAGUGAACCAGAGAAACACAGGUUGUGGUAUAUUACCUGGUA [G25C C50G]	0.178

Variant	self-cleavage
GUCCUCUUUCACGUGGGCGUGAAAGAGAGAAGUGAACCAGAGACACACACGUUGUGGUAUAUUACCUGGUA [C16G A44C]	0.0851
GUCCUCUUGCACGUGCGCGUGAAAGAGAGAAGUGAACCAGAGAAACACACGUCGUGGUAUAUUACCUGGUA [U9G U53C]	0.736
GUCCUCUUUCACGUGCGCGUGAAUGAGAAAAGUGAACCAGAGAAACACACGUUGUGGUAUAUUACCUGGUA [A24U G29A]	0.146
GUCCUCUUUUACGUGCGCGUGAAAGAGAGAAGUGAACCAGAGAAACACACGUUGUGGUAUAGUACCUGGUA [C10U U62G]	0.0799
GUCCUCUUUCACGUGCGCGUGAAAGAGAGGAGUGAAGCAGAGAAACACACGUUGUGGUAUAUUACCUGGUA [A30G C37G]	0.0733
GUCCUCUUUCACGUGCUCGUGAAAGAGAGAAGUGAACCAGAGAAACACACGUUGUGGAAUAUUACCUGGUA [G17U U58A]	0.593
GUCCUCUUUCACGUGCGCGUGAAAGAGAGAAGUGAACCAGAAAAACACACGUUGUGGUAUAUUCCCUGGUA [G42A A64C]	0.129
GUCCUAUUUCACGUGCGCGUGAAAGAGAGAAGUGAACCAGAGAAACACACGUUGUGGUAUCUUACCUGGUA [C6A A61C]	0.225
GUCCUCUUUCACGUGCGCGUGAAAGAGAGAAGUGAUCCAGAGAAAAACACGUUGUGGUAUAUUACCUGGUA [A36U C46A]	0.0951
GUCCUCUUUCACGUGCGCGUGAAAGAGAAAAGUGAACCAGAGAAACACACGUUGUGGUAGAUUACCUGGUA [G29A U60G]	0.0375
GUCCUCUUUCACGUGCGCGUGAAAGAGAGAAGUGAACCAGAGAAACACACGUUAUGGUAUAUUACCUGUUA [G54A G69U]	0.143
GUCCUCUUUCACGUGCGCGUGAAAGAGAGAAGUGAACCAGAGAAACACACUUUGUGGUAUAUUACCUGGUG [G51U A71G]	1.24
GUCCUCUUUCACGUGCGCGUGAAAGAGAGAAGUGAACCGGAGAAACAAACGUUGUGGUAUAUUACCUGGUA [A39G C48A]	0.0878
GUCCUCUUACACGUGCGCGUGAAAGAGAGAAGUGAACCAGAGAAACACACGUUGUGGUAUAUUACCUGGCA [U9A U70C]	0.719
GUCCUCUUGCACGUGCGCGUGAAAGAGAGAAGGGAACCAGAGAAACACACGUUGUGGUAUAUUACCUGGUA [U9G U33G]	0.145
GUCCUCUUUCACGUGCGCGUGAAAGAGAGAAGUGAACCAGAGAAACACUCGUUGUGGAAUAUUACCUGGUA [A49U U58A]	0.187
GUCCUCUUUCACGGGCGCGUGAAAGAGAGAAGUAAACCAGAGAAACACACGUUGUGGUAUAUUACCUGGUA [U14G G34A]	1.05
GUCCUCUUUCACGUGCGCGUGAAAGAGAGAAGUGAAACAGAGAAACACACGUUGUGGUAUAUUACCUGUUA [C37A G69U]	0.777
GUCCUCUUUCACGUGCGCGUGAAAGAGAGAAGUGAACCAGAGAAACACACGAUGUGGUAUAUUACCUAGUA [U52A G68A]	0.337
GUCCUCUUUCACGUGCGCGUGAAGGAGAGAAGUGUACCAGAGAAACACACGUUGUGGUAUAUUACCUGGUA [A24G A35U]	0.645
GUCCUCUUUCACGUGCGCGUGAAAGAGAGAAGUGAACCAGAGAAACACACGUUGUGGUAUAUAACCUCGUA [U63A G68C]	0.225
GUCCUCUUUCACGUGAGCGUGAAAGAGAGAAGUGACCCAGAGAAACACACGUUGUGGUAUAUUACCUGGUA [C16A A36C]	0.399
GUCCUCUUUCACGUGCGCGUGAAAGAGAGAAGUGAACCAGAGAAACACACGUUGUGGUAUGUUACCUGAUA [A61G G69A]	0.16
GUCCUAUUUCACGUGCGCGUAAAAGAGAGAAGUGAACCAGAGAAACACACGUUGUGGUAUAUUACCUGGUA [C6A G21A]	0.6
GUCCUCUUUCACGUGCACGUGAAAGAGAGAAGUGAACCAGAUAAACACACGUUGUGGUAUAUUACCUGGUA [G17A G42U]	0.273
GUCCUCUUUCACGUGCGCGUGAAAGAGAGAAGCGAACCAGAGAAACACACGUUGUGGUCUAUUACCUGGUA [U33C A59C]	0.198

Variant	self-cleavage
GUCCUCUUUCACGUGCGCGUGAAAGAGAGAAAUGAACCAGAGAAACACACGUUGUGGUAUAUUGCCUGGUA [G32A A64G]	0.142
GUCCUCUUUCACGUGCGCGUGAAAGAGAGAAGUGAACCAGAGAAACUCACGUUGUGGUAUAUUACCUGGAA [A47U U70A]	0.276
GUCCUCUUUCACGUGCGCGUGAAAGUGAGAAGUGAACCAGAGAAAAACACGUUGUGGUAUAUUACCUGGUA [A26U C46A]	0.146
GUCCUCUUUCACGUGCGCGUGAAAGAGAGAAGGGAACCAGAGAUACACACGUUGUGGUAUAUUACCUGGUA [U33G A44U]	0.23
GUCCUCUUUCACGUGCGCGUGAAAGAGAGAAGUGAACCAGAGAAACAUACGUGGUGGUAUAUUACCUGGUA [C48U U53G]	0.112
GUCAUCUUUCACGUGCGCGUGAAAGAGAGAAGUGAACCAGAGAAACACUCGUUGUGGUAUAUUACCUGGUA [C4A A49U]	0.189
GUCCUCUUUCACGUUCGCGUGAAAGAGAGAAGUGAACCAGAGAAACACACGUUGUGGUAUAUUACUUGGUA [G15U C66U]	0.574
GUCCUCUUUCACGUUCGCGUGAAAGAGAGAAGUGAACCAGAGAAACACACGUUGUGGUUUAUUACCUGGUA [G15U A59U]	0.0728
GUCCUCUUUCACGUGCGCGUGAAAGAGAGAAGUGAACCAGAGAAACACACGUUGUGGUAUAGUAACUGGUA [U62G C65A]	0.157
GUCCUCUUUCACGGGGGCGUGAAAGAGAGAAGUGAACCAGAGAAACACACGUUGUGGUAUAUUACCUGGUA [U14G C16G]	0.548
GUCCUCUUUCACGUGCGCGUGAAAGAGAGAAGUGAACCAGAGAAACACACGUGGUGGAAUAUUACCUGGUA [U53G U58A]	0.394
GUCCUCUUUCACGUGUGCGUGAAAGAGAGAAGUGAACCAGUGAAACACACGUUGUGGUAUAUUACCUGGUA [C16U A41U]	1.4
GUCCUCUUUCACGUGCGCGUGAAAGAGAGAAGUGAACCAGAGAGAAACACGUUGUGGUAUAUUACCUGGUA [A44G C46A]	0.184
GUCCUCUUUCACGUGCGCGUGAAAGAGAGAAGUGAACCAGAAAAACACACGUUGUGGUAUAUUACCUGGGA [G42A U70G]	0.161
GUCCUCUUUCACGUCCGCGUGAAAGAGAGAAGUGAACCAGAGAAACACACGUUGUGGUAUAUGACCUGGUA [G15C U63G]	0.127
GUCCUCUUUCACGUGCGCGUGAAAGAGAGAAGUGAACCAGACAAACACACGUUGCGGUAUAUUACCUGGUA [G42C U55C]	0.158
GUCCUCUUUCACGUACGCGUGAAAGAGAGAAGUGAACCAGAGAAUCACACGUUGUGGUAUAUUACCUGGUA [G15A A45U]	0.204
UUCCUCUUUCACGUGCGCGUGAAAGAGAGAACUGAACCAGAGAAACACACGUUGUGGUAUAUUACCUGGUA [G1U G32C]	0.0843
GUCCUCUUUCACGUGCGCCUGAAAGAGAGAAGUGAACCAGAGAAACACACGUUGUGGUAUAUUACCUCGUA [G19C G68C]	0.222
GUCCUCUUUCACGUGCGCGUGAAAGAGAGAAGUGAACCAGAGAAACAUACGUUGUGGUAUAUUACCUGGCA [C48U U70C]	0.0914
GUCCUCUUUCACGUGCCCGUGAAAGAGAGAAGUGAACCAGAGAAACACACGUUGGGGUAUAUUACCUGGUA [G17C U55G]	0.196
GUCCUCUUUUACGUGCGCGUGAAAGAGAGAAGUGAACCAGAGAAACACACGUUGUGGUAUAUUACCUGGUC [C10U A71C]	1.23
GUCCUCAUUCACGUGCGCGUGAAAGAGAGAAGUGAACCAGAGAAACACACGUUGUGGUAUUUUACCUGGUA [U7A A61U]	0.167
GUCCUCUUUCACGUGCGCGUGAAAGAGAGAAGUGAACCAGAGAAACUCAAGUUGUGGUAUAUUACCUGGUA [A47U C50A]	0.113
